These results are taken from PMC8809517, “Cofactor-independent RNA editing by a synthetic S-type PPR protein”.

Common to all, as to assay: high-throughput RNA pulldown from lysate on Ni-NTA beads; HRP: 50 mM Tris pH 8, 150 mM NaCl, 1 mM beta-mercaptoethanol, 50 ug/ml BSA, 3 ug/ml yeast RNA, 0.5% heparin; ITC and FP: Tris pH 8, 200 mM KCl, 5% glycerol; MST: 50 mM Tris pH 8, 200 mM NaCl, 1 mM DTT, BSA, heparin, 0.05% Tween 20
Common to all, as to settings: tags: N-terminal His-eGFP

The target of data set [1] is T1, GFP-9S library array, motif 4 ND N98Y;D124P (synthetic construct, N98Y;D124P).
T1 chain: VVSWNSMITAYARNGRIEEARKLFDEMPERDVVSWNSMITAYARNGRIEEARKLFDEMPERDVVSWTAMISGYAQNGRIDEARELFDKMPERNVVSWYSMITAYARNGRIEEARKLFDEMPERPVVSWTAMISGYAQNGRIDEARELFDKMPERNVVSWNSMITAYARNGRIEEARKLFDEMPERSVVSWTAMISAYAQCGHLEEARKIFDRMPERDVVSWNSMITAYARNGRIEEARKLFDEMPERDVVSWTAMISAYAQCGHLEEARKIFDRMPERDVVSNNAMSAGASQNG

In data set [2] the target is T2, GFP-9S library array, motif 4 ND N98D;D124R (synthetic construct, N98D;D124R).
T2 chain: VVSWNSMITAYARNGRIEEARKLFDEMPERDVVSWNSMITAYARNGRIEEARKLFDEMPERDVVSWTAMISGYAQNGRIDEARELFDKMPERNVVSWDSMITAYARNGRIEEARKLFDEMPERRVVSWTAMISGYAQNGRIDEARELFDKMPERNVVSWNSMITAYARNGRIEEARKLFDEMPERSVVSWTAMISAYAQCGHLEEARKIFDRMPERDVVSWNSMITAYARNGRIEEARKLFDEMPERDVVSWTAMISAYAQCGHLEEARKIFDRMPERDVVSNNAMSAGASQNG

The target of data set [3] is T3, GFP-9S library array, motif 4 ND N98S;D124F (synthetic construct, N98S;D124F).
T3 chain: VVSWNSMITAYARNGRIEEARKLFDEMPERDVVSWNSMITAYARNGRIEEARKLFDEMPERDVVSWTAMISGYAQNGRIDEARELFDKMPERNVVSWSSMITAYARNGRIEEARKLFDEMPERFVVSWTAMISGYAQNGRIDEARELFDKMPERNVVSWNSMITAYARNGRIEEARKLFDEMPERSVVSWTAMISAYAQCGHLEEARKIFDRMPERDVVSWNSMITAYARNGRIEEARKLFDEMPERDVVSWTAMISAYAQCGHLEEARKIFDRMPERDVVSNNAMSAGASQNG

The target in data set [4] is T4, GFP-9S library array, motif 4 ND N98L;D124L (synthetic construct, N98L;D124L).
T4 chain: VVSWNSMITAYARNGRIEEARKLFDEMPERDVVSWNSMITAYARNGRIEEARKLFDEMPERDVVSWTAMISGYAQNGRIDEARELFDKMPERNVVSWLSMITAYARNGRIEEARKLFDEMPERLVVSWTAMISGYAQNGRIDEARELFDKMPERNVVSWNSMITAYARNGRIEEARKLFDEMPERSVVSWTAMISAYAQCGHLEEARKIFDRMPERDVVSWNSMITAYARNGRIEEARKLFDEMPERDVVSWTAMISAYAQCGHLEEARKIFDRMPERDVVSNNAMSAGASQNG

In data set [5] the target is T5, GFP-9S library array, motif 4 ND D124N (synthetic construct, D124N).
T5 chain: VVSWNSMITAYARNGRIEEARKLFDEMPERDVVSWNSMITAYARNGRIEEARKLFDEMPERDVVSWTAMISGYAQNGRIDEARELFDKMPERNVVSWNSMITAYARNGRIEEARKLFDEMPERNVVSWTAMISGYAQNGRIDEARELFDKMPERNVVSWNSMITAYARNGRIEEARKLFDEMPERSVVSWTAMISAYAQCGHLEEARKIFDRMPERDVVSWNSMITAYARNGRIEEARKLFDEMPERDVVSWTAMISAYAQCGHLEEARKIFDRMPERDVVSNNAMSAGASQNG

What is called Kd is the free concentration of one partner at which half of the binding sites on the other are occupied at equilibrium, for simple one-to-one binding. Read a low Kd as higher affinity. On to AUUAUACGUGA (ssRNA) [IR-rpoA-U], for which the Kd in data set [1] (label: 5' IRDye 800CW) was found to be 160 nM; in data set [2] (label: 5' IRDye 800CW) it was 282 nM; in data set [3] (label: 5' IRDye 800CW), 171 nM; in data set [4] (label: 5' IRDye 800CW) it was 158 nM; in data set [5] (label: 5' IRDye 800CW), 11.6 nM.

As to AUUACACGUGA (ssRNA) [Cy5-rpoA], the dissociation constant (Kd) was determined as 106 nM in data set [1] (label: 5' Cy5); 154 nM in data set [2] (label: 5' Cy5); 39 nM in data set [3] (label: 5' Cy5); 74.9 nM in data set [4] (label: 5' Cy5); 3.13 nM in data set [5] (label: 5' Cy5).

As to AUUAAACGUGA (ssRNA) [IR-rpoA-A], the Kd was found to be 219 nM in data set [1] (label: 5' IRDye 800CW); 326 nM in data set [2] (label: 5' IRDye 800CW); 76.7 nM in data set [3] (label: 5' IRDye 800CW); 157 nM in data set [4] (label: 5' IRDye 800CW); 114 nM in data set [5] (label: 5' IRDye 800CW).

For the molecule AUUAGACGUGA (ssRNA) [Cy5-rpoA-G], the Kd in data set [1] (label: 5' Cy5) was 110 nM; in data set [2] (label: 5' Cy5) it was 155 nM; in data set [3] (label: 5' Cy5), 77.7 nM; in data set [4] (label: 5' Cy5), 76.1 nM; in data set [5] (label: 5' Cy5) it was 178 nM.
